Among the data in patent US20120316071A1 (published 2012) are ECL signal values, retold here.

Common to all, as to assay: MSD ECL multispot assay, antigen spotted on plate, Fab in solution; blank spot of this row 278
Assay [1] has as its target T1, rHuman CD44/Fc Chimera, CF (R&D Systems Cat#3660-CD) (human, UniProt P16070 21-220).
T1 construct: Bought recombinant protein; not shown: Fc of the bought chimera

The target in assay [2] is T2, rHuman EGF R/Fc Chimera, CF (R&D Systems Cat#344-ER) (human, UniProt P00533 25-645).
T2 construct: Bought recombinant protein; not shown: Fc of the bought chimera

For assay [3], the target named is T3, rHuman ErbB2/Fc Chimera, CF (R&D Systems Cat#1129-ER) (human, UniProt P04626 23-652).
T3 construct: Bought recombinant protein; not shown: Fc of the bought chimera

The target of assay [4] is T4, rHuman Notch-1/Fc Chimera, CF (R&D Systems Cat#3647-TK) (human, UniProt P46531 19-526).
T4 construct: Bought recombinant protein; not shown: Fc of the bought chimera

Assay [5] has as its target T5, rHuman HGF R/c-MET/Fc Chimera, CF (R&D Systems Cat#358-MT/CF) (human, UniProt P08581 25-932).
T5 construct: Bought recombinant protein; also called HGF R/Fc; not shown: Fc of the bought chimera

In assay [6] the target is T6, rHuman Erythropoietin R/Fc Chimera, CF (R&D Systems Cat#963-ER) (human, UniProt P19235 25-250).
T6 construct: Bought recombinant protein; also called EPO R; EPO R/Fc; not shown: Fc of the bought chimera
T6 sequence (looked up): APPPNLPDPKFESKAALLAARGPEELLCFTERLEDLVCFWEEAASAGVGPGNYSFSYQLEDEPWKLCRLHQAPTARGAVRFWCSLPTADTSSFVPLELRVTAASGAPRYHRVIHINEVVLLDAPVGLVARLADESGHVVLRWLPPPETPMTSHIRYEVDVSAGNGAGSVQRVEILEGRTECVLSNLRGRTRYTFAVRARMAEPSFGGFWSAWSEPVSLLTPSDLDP

Assay [7] has as its target T7, rHuman IGF-1 sR (insulin-like growth factor-1 soluble receptor), CF (R&D Systems Cat#391-GR) (human, UniProt P08069 31-932).
T7 construct: Bought recombinant soluble receptor

For assay [8], the target named is T8, Recombinant Human DLL4 (R&D Systems Cat#1506-D4/CF) (human, UniProt Q9NR61 27-524).
T8 construct: Bought recombinant protein; also called delta-like protein 4; rHuman DLL4

Assay [9] deals with T9, rHuman P-Cadherin/Fc Chimera, CF (R&D Systems Cat#861-PC) (human, UniProt P22223 108-654).
T9 construct: Bought recombinant protein; not shown: Fc of the bought chimera

T5 sequence (P08581 25-932, change not shown): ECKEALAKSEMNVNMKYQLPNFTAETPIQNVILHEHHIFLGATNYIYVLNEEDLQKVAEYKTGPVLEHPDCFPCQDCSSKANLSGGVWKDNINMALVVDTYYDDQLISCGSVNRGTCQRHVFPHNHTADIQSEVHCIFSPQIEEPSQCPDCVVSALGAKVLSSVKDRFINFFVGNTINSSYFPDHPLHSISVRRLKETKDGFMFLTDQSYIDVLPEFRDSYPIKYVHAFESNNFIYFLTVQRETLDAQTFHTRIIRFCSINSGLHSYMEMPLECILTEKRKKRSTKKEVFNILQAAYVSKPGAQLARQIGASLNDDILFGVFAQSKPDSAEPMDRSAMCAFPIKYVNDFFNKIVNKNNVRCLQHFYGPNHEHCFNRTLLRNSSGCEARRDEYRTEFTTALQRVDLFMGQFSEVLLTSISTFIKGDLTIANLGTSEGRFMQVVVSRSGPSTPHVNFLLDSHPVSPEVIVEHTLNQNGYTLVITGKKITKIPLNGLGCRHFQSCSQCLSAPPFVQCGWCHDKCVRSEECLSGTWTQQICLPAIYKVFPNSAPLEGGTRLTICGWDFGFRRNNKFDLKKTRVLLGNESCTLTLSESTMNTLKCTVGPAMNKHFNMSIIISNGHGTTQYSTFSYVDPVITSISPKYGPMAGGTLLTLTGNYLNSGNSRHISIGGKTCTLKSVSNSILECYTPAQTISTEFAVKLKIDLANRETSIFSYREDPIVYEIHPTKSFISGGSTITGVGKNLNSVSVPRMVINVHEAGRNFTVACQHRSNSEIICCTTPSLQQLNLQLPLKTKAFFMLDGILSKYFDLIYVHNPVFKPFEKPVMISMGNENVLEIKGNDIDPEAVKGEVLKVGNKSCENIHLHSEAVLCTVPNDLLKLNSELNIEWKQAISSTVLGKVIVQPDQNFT

B1: Fab VH1-46_IGHD6-6*01_IGHJ1*01 S102A/S103P/S104F/H111F (APFF) & L6_IGKJ1*01 S92T (Fab, V domains shown)
VH: QVQLVQSGAEVKKPGASVKVSCKASGYTFTSYYMHWVRQAPGQGLEWMGIINPSGGSTSYAQKFQGRVTMTRDTSTSTVYMELSSLRSEDTAVYYCAREEYAPFSAEYFQFWGQGTLVTVSS
VL: EIVLTQSPATLSLSPGERATLSCRASQSVSSYLAWYQQKPGQAPRLLIYDASNRATGIPARFSGSGSGTDFTLTISSLEPEDFAVYYCQQRTNWPPWTFGQGTKVEIKR
notes: Fab; also called APFF / S92T
Turning to B1, the ECL signal in [1] came out at 290; in assay [2], 295; in [3] it was 237; in assay [4], 231; in assay [5], 290; in [6], 424. Further, the ECL signal is 308 in assay [7], 54100 in assay [8] and 387 in assay [9].
